Substrate in series [1]: COC(=O)C1CN=CNC1
The following applies: Mus musculus; A9L.

Substrate in series [2]: C[N+](C)(C)CCOC(N)=O
The note with it: Mus musculus; A9L.

B1: Muscarinic acetylcholine receptor M2 (Mus musculus), Q9ERZ4 (protein)
chain: MNNSTNSSNNGLAITSPYKTFEVVFIVLVAGSLSLVTIIGNILVMVSIKVNRHLQTVNNYFLFSLACADLIIGVFSMNLYTLYTVIGYWPLGPVVCDLWLALDYVVSNASVMNLLIISFDRYFCVTKPLTYPVKRTTKMAGMMIAAAWVLSFILWAPAILFWQFIVGVRTVEDGECYIQFFSNAAVTFGTAIAAFYLPVIIMTVLYWHISRASKSRIKKEKKEPVANQDPVSPSLVQGRIVKPNNNNMPGGDGGLEHNKIQNGKAPRDGGTENCVQGEEKESSNDSTSVSAVASNMRDDEITQDENTVSTSLGHSKDDNSRQTCIKIVTKTQKGDACTPTSTTVELVGSSGQNGDEKQNIVARKIVKMTKQPAKKKPPPSREKKVTRTILAILLAFIITWAPYNVMVLINTFCAPCIPNTVWTIGYWLCYINSTINPACYALCNATFKKTFKHLLMCHYKNIGATR
A word on the Km: it is the concentration of substrate that gives half-maximal velocity. As to B1, the Km in series [1] stood at 0.014 µM; in series [2] it was 0.046 µM.

The values are drawn from ChEMBL document CHEMBL1129993, “Synthesis and biological characterization of 1,4,5,6-tetrahydropyrimidine and 2-amino-3,4,5,6-tetrahydropyridine derivatives as selective m1 agonists” (J Med Chem, 1997).
